# In US20230348588A1 (published 2023):
# T1: extracellular domain (ECD) of recombinant human Sortilin with a C-terminal HIS tag (ECD-huSortilin-HIS) (human, UniProt Q99523 78-755)
# T1 construct: Bought (R&D Systems); also called human sortilin-ECD
# T1 sequence: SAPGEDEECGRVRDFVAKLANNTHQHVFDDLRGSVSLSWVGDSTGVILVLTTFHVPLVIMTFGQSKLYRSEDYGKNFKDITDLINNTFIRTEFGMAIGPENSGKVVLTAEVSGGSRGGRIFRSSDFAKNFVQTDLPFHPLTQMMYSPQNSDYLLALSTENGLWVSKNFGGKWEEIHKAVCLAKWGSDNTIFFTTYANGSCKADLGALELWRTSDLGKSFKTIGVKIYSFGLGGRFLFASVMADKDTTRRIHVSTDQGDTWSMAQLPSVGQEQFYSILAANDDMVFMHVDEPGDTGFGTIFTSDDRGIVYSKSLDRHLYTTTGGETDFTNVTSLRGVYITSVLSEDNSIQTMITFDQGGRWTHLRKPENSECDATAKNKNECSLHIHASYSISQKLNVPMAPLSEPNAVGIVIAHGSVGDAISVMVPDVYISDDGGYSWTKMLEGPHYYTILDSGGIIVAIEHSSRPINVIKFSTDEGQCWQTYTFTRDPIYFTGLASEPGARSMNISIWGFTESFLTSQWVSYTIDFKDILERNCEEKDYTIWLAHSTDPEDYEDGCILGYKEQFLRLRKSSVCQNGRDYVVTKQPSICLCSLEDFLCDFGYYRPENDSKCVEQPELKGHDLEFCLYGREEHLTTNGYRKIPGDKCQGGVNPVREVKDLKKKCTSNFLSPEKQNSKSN
# How the values were obtained:
# [1] = molecular target: T1, extracellular domain (ECD) of …; experiment: SPR (Biacore T200), mAb captured on anti-mouse chip, sortilin as analyte, global 1:1 fit
# Description: Analysis was performed using a Biacore T200 to compare the binding affinity of murine anti-huSortilin antibodies to recombinant human Sortilin. Anti-mouse antibody was immobilized on sensor chip CM5 (GE Healthcare Life Sciences) via amine coupling, and mouse antibodies (ligand) were captured to a level to ensure a maximum binding of analyte of 50 RU (approximately 100RU of ligand binding). Various concentrations of Sortilin (ranging from 0.1 nM to 300 nM) were passed over the captured ligand at 50 µL/min in running buffer (HBS + 0.05% P-20, 1 mg/mL BSA) for 180-300 s association time and 300-900 s dissociation time. Regeneration of the chip surface was accomplished by 2 short injections of 10 mM Glycine-HCI at pH 1.7. Data was blank subtracted to both a sensor not containing ligand and 0 nM analyte concentration. Analysis was performed using a global 1:1 fit with Biacore Insight Evaluation software (v2.0) with bulk refractive index set to zero RU.
# [2] = molecular target: T1, extracellular domain (ECD) of …; experiment: SPR (Biacore T200), mAb captured on anti-human chip, sortilin as analyte, global 1:1 fit
# Description: Analysis was performed using a Biacore T200 to compare the binding affinity of chimeric and humanized antibodies to recombinant human Sortilin. Anti-Human antibody was immobilized on sensor chip CM5 (GE Healthcare Life Sciences) via amine coupling, and humanized antibodies (ligand) were captured to a level to ensure a maximum binding of analyte of 50 RU (approximately 100 RU of ligand binding). Various concentrations of Sortilin (ranging from 0.1 nM to 300 nM) were passed over the captured ligand at 50 µL/min in running buffer (HBS + 0.05% P-20, 1 mg/mL BSA) for 300 s association time and 1200 s dissociation time. Regeneration of the chip surface was accomplished by 2 short injections of 3 M MgCl. Data was blank subtracted to both a sensor not containing ligand and 0 nM analyte concentration. Analysis was performed using a global 1:1 fit with Biacore Insight Evaluation software (v2.0) with bulk refractive index set to zero RU.
koff [1] [s⁻¹],kon [1] [M⁻¹ s⁻¹],koff [2] [s⁻¹],kon [2] [M⁻¹ s⁻¹],Binder
0.000237,108000,–,–,"mouse monoclonal antibody 2P22 (antibody, mouse IgG2b, V domains shown) VH: EVQLVESGGDLVKPGGSLKLSCAASGFTFSIYGMSWVRQTPDKKLEWVAAISSGGIYTYYPDSVKGRFTISRDNAKNTLYLQMSSLKSADTAMYYCTRNDYDWFAYWGQGTLVTVSA VL: DIQMTQSPSSLSASLGERVSLTCRASQDIGSSLNWLQQEPDGTIKRLIYATSSLDSGVPKRFSGSRSGSDYSLTISSLESEDFVDYYCLQYASSPYTFGGGTKLEIK"
0.00044,96600,–,–,"mouse monoclonal antibody 8H24 (antibody, V domains shown, also called murine 8H24; m8H24) VH: QAYLQQSGTELVRPGASVKMSCKASGYTFTSYSMHWVKQTPRQGLEWIGAIYPGNDATSYNQKFKGKATLTVDKSSSTAYMQLSSLTSEDSAVYFCAREGYYGSSFEAWFASWGQGTLVTVSA VL: DVLMTQTPLSLPVSLGDQASISCRSSQSIVHSNGNTYLEWYLQKPGQSPKLLIYKVSNRFSGVPDRFSGSGSGTDFTLKISRVEAEDLGVYYCFQGSHVLPTFGGGTKLEIK"
–,–,0.00257,–,"hu8H24VHv2/hu8H24VLv1 (antibody, V domains shown, Humanized variable regions; also called 8H24H2L1) VH: QAQLVQSGAEVVKPGSSVKVSCKASGYTFTSYSMHWVRQAPGQGLEWIGAIYPGNDATSYNQKFKGRATLTVDKSTSTAYMELSSLRSEDTAVYFCAREGYYGSSFEAWFASWGQGTTVTVSS VL: DVVMTQTPLSLPVTPGEPASISCRSSQSIVHSNGNTYLEWYLQKPGQSPQLLIYKVSNRFSGVPDRFSGSGSGTDFTLKISRVEAEDVGVYYCFQGSHVLPTFGGGTKVEIK"
–,–,0.0025,–,"hu8H24VHv2/hu8H24VLv2 (antibody, V domains shown, Humanized variable regions; also called 8H24H2L2) VH: QAQLVQSGAEVVKPGSSVKVSCKASGYTFTSYSMHWVRQAPGQGLEWIGAIYPGNDATSYNQKFKGRATLTVDKSTSTAYMELSSLRSEDTAVYFCAREGYYGSSFEAWFASWGQGTTVTVSS VL: DVVMTQTPSSLPVTPGEPASISCRSSQSIVHSNGNTYLEWYLQKPGQSPQLLIYKVSNRFSGVPDRFSGSGSGTDFTLTISRVEAEDVGVYYCFQGSHVLPTFGGGTKVEIK"
0.000139,87700,–,–,"mouse monoclonal antibody 5E20 (antibody, V domains shown, also called murine 5E20; m5E20) VH: EVQLVESGGDLVKPGGSLKLSCAAPGFTFSTYGMSWVRQTPDKRLEWVAIISSGGSYTYYSDTVKGRFTISRDNAKNTLYLQMSSLKSEDTAMYYCSRSSSHWYFDVWGTGTTVTVSS VL: DILMTQSPSSMSVSLGDTVSITCHASQGISSNIGWLQQKPGKSFKGLIYHGTNLKDGVPSRFSGSGSGADFSLTISSLESEDFADYFCVQYAQFPYTFGGGTKLEKR"
0.00245,208000,–,–,"mouse monoclonal antibody 2C14 (antibody, mouse IgG1, V domains shown) VH: EVQLVESGGDLVKPGGSLKLSCAASGFTFNTHGMSWVRQTPDKSLEWVATISTGGFYTSYPDSVKGRFTISRDNAKNTLFLQMSSLKSEDTAMYYCAKSSSHWYFDVWGTGTTVTVSS VL: DILMTQSPSSMSVSLGDTVSITCHASQGISSNIGWLQQKPGKSFKGLIYHGTNLEDGVPSRFSGSGSGADYSLTISSLEYEDFADYYCVQYAHFPYTFGGGTKLEIK"
–,–,0.000396,597000,"chimeric 5E20 (antibody, human IgG1, kappa, L234A L235A, V domains shown) VH: EVQLVESGGDLVKPGGSLKLSCAAPGFTFSTYGMSWVRQTPDKRLEWVAIISSGGSYTYYSDTVKGRFTISRDNAKNTLYLQMSSLKSEDTAMYYCSRSSSHWYFDVWGTGTTVTVSS VL: DILMTQSPSSMSVSLGDTVSITCHASQGISSNIGWLQQKPGKSFKGLIYHGTNLKDGVPSRFSGSGSGADFSLTISSLESEDFADYFCVQYAQFPYTFGGGTKLEIKR"
0.00013,127000,–,–,"mouse monoclonal antibody 6B15 (antibody, mouse IgG1, V domains shown) VH: EVQLVESGGDLVKPGGSLKLSCAAPGFTFSTYGMSWVRQTPDKRLEWVAIISSGGSYTYYSDTVKGRFTISRDNAKNTLNLQMSSLKSEDTAMYFCSRSSSHWYFDVWGTGTTVTVSS VL: DILMTQFPSSMSVSLGDTVSITCHASQGISSNIGWLQQKPGKSFKGLIYHGTNLKDGVPSRFSGSGSGTDFSLTISSLESEDFADYYCVQYAQFPYTFGGGTKLEKR"
–,–,0.000969,384000,"chimeric 11M14 (antibody, human IgG1, kappa, L234A L235A, V domains shown) VH: EVQLVESGGDLVKPGGSLKLSCAASGFTFNIYGMSWVRQTPDKRLEWVATISSGGIYTYYPDILKGRFTISRDNAKNTLYLQMSSLKSEDTAMYYCARHPGGAMDYWGQGTSVTVSS VL: DIQMTQSPASLSVSVGETVTITCRVSENIYSNLAWYQQKQGKSPHLLVYAATNLADGVPSRFSGSGSGTQYSLKINSLQSEDFGSYYCQHFWGTPPWTFGGGTKLEIKR"
0.000569,91100,–,–,"mouse monoclonal antibody 11M14 (antibody, V domains shown, also called murine 11M14; m11M14) VH: EVQLVESGGDLVKPGGSLKLSCAASGFTFNIYGMSWVRQTPDKRLEWVATISSGGIYTYYPDILKGRFTISRDNAKNTLYLQMSSLKSEDTAMYYCARHPGGAMDYWGQGTSVTVSS VL: DIQMTQSPASLSVSVGETVTITCRVSENIYSNLAWYQQKQGKSPHLLVYAATNLADGVPSRFSGSGSGTQYSLKINSLQSEDFGSYYCQHFWGTPPWTFGGGTKLEIK"
0.000162,57600,–,–,"mouse monoclonal antibody 2F18 (antibody, mouse IgG1, V domains shown) VH: EVQLVESGGDLVKPGGSLKLSCAASGFTFNIYGMSWVRQTPDKRLEWVATISTGGIYTYYPDSVKGRFTISRDNAKNTLYLQMSSLKSEDTAMYYCARHPVGALDYWGQGTSVTVSS VL: DIQVTQSPASLSVSVGETVTITCRASENIYSNLAWYQQKQGKSPHLLVYTATTLADGVPSRFSGSGSGTQYSLKINSLQSEDFGSYYCQHFWGTPPWTFGGGTKLEIK"
